# Results reported in the Human Domainome abundance scans (Beltran et al. 2025).
# ± gives the uncertainty stated by the source.
# Assay: abundance fitness (aPCA) (normalised: wild type 0, dead -1); higher = more abundant; growth selection in yeast, the domain comes from the species named
# Settings: Homo sapiens
row,Substance,abundance fitness
1,"E3 ubiquitin-protein ligase NEDD4-like T209H, Q96PU5",-0.32 ± 0.11
2,"E3 ubiquitin-protein ligase NEDD4-like L206W, Q96PU5",-0.034 ± 0.077
3,"E3 ubiquitin-protein ligase NEDD4-like N216D, Q96PU5",-0.142 ± 0.085
4,"E3 ubiquitin-protein ligase NEDD4-like P193E, Q96PU5",-0.07 ± 0.087
5,"E3 ubiquitin-protein ligase NEDD4-like E201Y, Q96PU5",-0.278 ± 0.056
6,"E3 ubiquitin-protein ligase NEDD4-like R223L, Q96PU5",-0.206 ± 0.053
7,"E3 ubiquitin-protein ligase NEDD4-like D228G, Q96PU5",0.031 ± 0.056
8,"E3 ubiquitin-protein ligase NEDD4-like S230A, Q96PU5",-0.024 ± 0.058
9,"E3 ubiquitin-protein ligase NEDD4-like E188A, Q96PU5",-0.854 ± 0.29
10,"E3 ubiquitin-protein ligase NEDD4-like E189Q, Q96PU5",-0.062 ± 0.097
11,"E3 ubiquitin-protein ligase NEDD4-like G198R, Q96PU5",-0.238 ± 0.06
12,"E3 ubiquitin-protein ligase NEDD4-like E189T, Q96PU5",-0.087 ± 0.077
13,"E3 ubiquitin-protein ligase NEDD4-like P197V, Q96PU5",-0.009 ± 0.06
14,"E3 ubiquitin-protein ligase NEDD4-like L206E, Q96PU5",0.044 ± 0.084
15,"E3 ubiquitin-protein ligase NEDD4-like N213W, Q96PU5",-0.753 ± 0.1
16,"E3 ubiquitin-protein ligase NEDD4-like E232L, Q96PU5",-0.158 ± 0.19
17,"E3 ubiquitin-protein ligase NEDD4-like S225P, Q96PU5",0.018 ± 0.083
18,"E3 ubiquitin-protein ligase NEDD4-like T218E, Q96PU5",-0.122 ± 0.062
19,"E3 ubiquitin-protein ligase NEDD4-like W199N, Q96PU5",-0.853 ± 0.19
20,"E3 ubiquitin-protein ligase NEDD4-like G198K, Q96PU5",-0.103 ± 0.087
21,"E3 ubiquitin-protein ligase NEDD4-like H214V, Q96PU5",-0.026 ± 0.058
22,"E3 ubiquitin-protein ligase NEDD4-like M227C, Q96PU5",-0.05 ± 0.059
23,"E3 ubiquitin-protein ligase NEDD4-like D228H, Q96PU5",0.122 ± 0.079
24,"E3 ubiquitin-protein ligase NEDD4-like S231A, Q96PU5",-0.099 ± 0.075

row,Substance,abundance fitness
1,"E3 ubiquitin-protein ligase NEDD4-like T209V, Q96PU5",-0.079 ± 0.067
2,"E3 ubiquitin-protein ligase NEDD4-like Q185D, Q96PU5",-0.097 ± 0.1
3,"E3 ubiquitin-protein ligase NEDD4-like E201N, Q96PU5",-0.212 ± 0.06
4,"E3 ubiquitin-protein ligase NEDD4-like N213C, Q96PU5",-0.042 ± 0.14
5,"E3 ubiquitin-protein ligase NEDD4-like S231L, Q96PU5",0.002 ± 0.088
6,"E3 ubiquitin-protein ligase NEDD4-like W199M, Q96PU5",-0.514 ± 0.089
7,"E3 ubiquitin-protein ligase NEDD4-like S230C, Q96PU5",-0.067 ± 0.066
8,"E3 ubiquitin-protein ligase NEDD4-like P196Y, Q96PU5",-0.384 ± 0.11
9,"E3 ubiquitin-protein ligase NEDD4-like W221T, Q96PU5",-0.035 ± 0.063
10,"E3 ubiquitin-protein ligase NEDD4-like P224L, Q96PU5",-0.93 ± 0.06
11,"E3 ubiquitin-protein ligase NEDD4-like N213F, Q96PU5",-0.507 ± 0.11
12,"E3 ubiquitin-protein ligase NEDD4-like S231Q, Q96PU5",0.242 ± 0.14
13,"E3 ubiquitin-protein ligase NEDD4-like V203T, Q96PU5",-0.115 ± 0.092
14,"E3 ubiquitin-protein ligase NEDD4-like E232Y, Q96PU5",-0.413 ± 0.27
15,"E3 ubiquitin-protein ligase NEDD4-like S231F, Q96PU5",-0.275 ± 0.11
16,"E3 ubiquitin-protein ligase NEDD4-like H222F, Q96PU5",-0.052 ± 0.089
17,"E3 ubiquitin-protein ligase NEDD4-like V229N, Q96PU5",-0.007 ± 0.11
18,"E3 ubiquitin-protein ligase NEDD4-like E189D, Q96PU5",-0.189 ± 0.093
19,"E3 ubiquitin-protein ligase NEDD4-like S184R, Q96PU5",-1.23 ± 0.22
20,"E3 ubiquitin-protein ligase NEDD4-like W199F, Q96PU5",0.004 ± 0.079
21,"E3 ubiquitin-protein ligase NEDD4-like D228V, Q96PU5",-0.159 ± 0.071
22,"E3 ubiquitin-protein ligase NEDD4-like P224I, Q96PU5",-0.877 ± 0.18
23,"E3 ubiquitin-protein ligase NEDD4-like T219N, Q96PU5",-0.221 ± 0.067
24,"E3 ubiquitin-protein ligase NEDD4-like Q187Y, Q96PU5",0.031 ± 0.1

row,Substance,abundance fitness
1,"E3 ubiquitin-protein ligase NEDD4-like G198W, Q96PU5",-0.324 ± 0.095
2,"E3 ubiquitin-protein ligase NEDD4-like L226N, Q96PU5",0.01 ± 0.09
3,"E3 ubiquitin-protein ligase NEDD4-like V229Q, Q96PU5",-0.133 ± 0.1
4,"E3 ubiquitin-protein ligase NEDD4-like P193K, Q96PU5",-0.033 ± 0.069
5,"E3 ubiquitin-protein ligase NEDD4-like T219K, Q96PU5",-0.157 ± 0.099
6,"E3 ubiquitin-protein ligase NEDD4-like S231N, Q96PU5",-0.385 ± 0.12
7,"E3 ubiquitin-protein ligase NEDD4-like K202Y, Q96PU5",-0.289 ± 0.11
8,"E3 ubiquitin-protein ligase NEDD4-like D204R, Q96PU5",-1.03 ± 0.062
9,"E3 ubiquitin-protein ligase NEDD4-like D228S, Q96PU5",-0.053 ± 0.059
10,"E3 ubiquitin-protein ligase NEDD4-like N205Y, Q96PU5",0.049 ± 0.094
11,"E3 ubiquitin-protein ligase NEDD4-like M227N, Q96PU5",-0.024 ± 0.099
12,"E3 ubiquitin-protein ligase NEDD4-like M227D, Q96PU5",0.065 ± 0.12
13,"E3 ubiquitin-protein ligase NEDD4-like G198H, Q96PU5",-0.197 ± 0.11
14,"E3 ubiquitin-protein ligase NEDD4-like V212K, Q96PU5",-0.974 ± 0.18
15,"E3 ubiquitin-protein ligase NEDD4-like Q220Y, Q96PU5",-0.692 ± 0.096
16,"E3 ubiquitin-protein ligase NEDD4-like P197L, Q96PU5",0.048 ± 0.075
17,"E3 ubiquitin-protein ligase NEDD4-like T209N, Q96PU5",-0.095 ± 0.092
18,"E3 ubiquitin-protein ligase NEDD4-like D228C, Q96PU5",-0.332 ± 0.067
19,"E3 ubiquitin-protein ligase NEDD4-like D228A, Q96PU5",-0.091 ± 0.07
20,"E3 ubiquitin-protein ligase NEDD4-like R223D, Q96PU5",-0.481 ± 0.098
21,"E3 ubiquitin-protein ligase NEDD4-like Y210S, Q96PU5",-0.359 ± 0.071
22,"E3 ubiquitin-protein ligase NEDD4-like V203S, Q96PU5",-0.144 ± 0.066
23,"E3 ubiquitin-protein ligase NEDD4-like R223V, Q96PU5",-0.249 ± 0.064
24,"E3 ubiquitin-protein ligase NEDD4-like G198Q, Q96PU5",-0.075 ± 0.06

row,Substance,abundance fitness
1,"E3 ubiquitin-protein ligase NEDD4-like D204V, Q96PU5",-0.908 ± 0.074
2,"E3 ubiquitin-protein ligase NEDD4-like P193A, Q96PU5",-0.12 ± 0.068
3,"E3 ubiquitin-protein ligase NEDD4-like L195F, Q96PU5",-0.902 ± 0.38
4,"E3 ubiquitin-protein ligase NEDD4-like E232K, Q96PU5",-1.37 ± 0.43
5,"E3 ubiquitin-protein ligase NEDD4-like S230G, Q96PU5",-0.081 ± 0.054
6,"E3 ubiquitin-protein ligase NEDD4-like T218M, Q96PU5",-0.128 ± 0.089
7,"E3 ubiquitin-protein ligase NEDD4-like P194Y, Q96PU5",-0.279 ± 0.093
8,"E3 ubiquitin-protein ligase NEDD4-like H214N, Q96PU5",-0.032 ± 0.11
9,"E3 ubiquitin-protein ligase NEDD4-like V203E, Q96PU5",-0.033 ± 0.068
10,"E3 ubiquitin-protein ligase NEDD4-like N205H, Q96PU5",-0.062 ± 0.11
11,"E3 ubiquitin-protein ligase NEDD4-like Q187K, Q96PU5",0.243 ± 0.087
12,"E3 ubiquitin-protein ligase NEDD4-like Y210C, Q96PU5",-0.386 ± 0.1
13,"E3 ubiquitin-protein ligase NEDD4-like P191S, Q96PU5",0.037 ± 0.069
14,"E3 ubiquitin-protein ligase NEDD4-like R208P, Q96PU5",-0.908 ± 0.099
15,"E3 ubiquitin-protein ligase NEDD4-like K202E, Q96PU5",-0.295 ± 0.095
16,"E3 ubiquitin-protein ligase NEDD4-like G198T, Q96PU5",-0.239 ± 0.075
17,"E3 ubiquitin-protein ligase NEDD4-like E232A, Q96PU5",-0.173 ± 0.11
18,"E3 ubiquitin-protein ligase NEDD4-like G207V, Q96PU5",-0.803 ± 0.056
19,"E3 ubiquitin-protein ligase NEDD4-like T219P, Q96PU5",-0.38 ± 0.1
20,"E3 ubiquitin-protein ligase NEDD4-like L206G, Q96PU5",0.059 ± 0.059
21,"E3 ubiquitin-protein ligase NEDD4-like T219S, Q96PU5",-0.189 ± 0.086
22,"E3 ubiquitin-protein ligase NEDD4-like T219E, Q96PU5",-0.145 ± 0.068
23,"E3 ubiquitin-protein ligase NEDD4-like G198I, Q96PU5",-0.765 ± 0.15
